US20190381150

Target: Human lactoferrin (lactoferrin from human milk, Sigma) (UniProt P02788)
Sequence (P02788 20-710): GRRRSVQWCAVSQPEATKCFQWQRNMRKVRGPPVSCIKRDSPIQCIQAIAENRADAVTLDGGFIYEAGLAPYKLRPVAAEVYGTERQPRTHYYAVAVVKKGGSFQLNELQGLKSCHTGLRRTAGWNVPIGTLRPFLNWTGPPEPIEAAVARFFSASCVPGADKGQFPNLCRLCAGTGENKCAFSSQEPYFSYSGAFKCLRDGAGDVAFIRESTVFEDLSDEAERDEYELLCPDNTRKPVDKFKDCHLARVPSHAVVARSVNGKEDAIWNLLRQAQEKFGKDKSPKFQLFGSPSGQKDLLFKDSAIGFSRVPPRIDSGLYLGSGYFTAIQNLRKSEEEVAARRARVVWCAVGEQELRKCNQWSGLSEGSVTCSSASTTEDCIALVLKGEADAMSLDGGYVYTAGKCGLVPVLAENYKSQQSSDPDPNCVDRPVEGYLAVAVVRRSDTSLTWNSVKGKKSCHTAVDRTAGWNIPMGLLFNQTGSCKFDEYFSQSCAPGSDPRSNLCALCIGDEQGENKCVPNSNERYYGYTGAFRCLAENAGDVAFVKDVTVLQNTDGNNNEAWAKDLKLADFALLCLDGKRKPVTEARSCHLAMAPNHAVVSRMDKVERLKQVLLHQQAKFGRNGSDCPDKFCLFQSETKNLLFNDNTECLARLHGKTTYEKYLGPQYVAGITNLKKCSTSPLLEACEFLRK

With “EndoBI-1 D184N (Asp 184 of EndoBI-1 mutated to Asn184), recombinant, signal sequence and transmembrane domains deleted” the “shift in molecular weight on SDS-PAGE of human milk after overnight incubation” value was “No change was observed when the milk sample was incubated with EndoBI-1 D184N”.
